Test results from paper PMC4739061.

How the values were obtained:
[1] = molecular target: FGFR1 kinase domain and tail (Homo sapiens) (UniProt P11362); conditions: cited from earlier work
[2] = molecular target: GyrB.FGFR1KD.TC, activated (incubated with ATP, autophosphorylated) (UniProt P11362); experiment: FRET or BRET; TR-FRET, lifetime of donor mTFP in a quartz cuvette; GyrB.FGFR1KD.TC (1 uM) tagged with FlAsH-EDT2 and mTFP.nSH2 (1 uM); 40 mM Tris-HCl pH 8.0, 20 mM MgCl2, 20 mM NaCl, 100 uM TCEP, 100 uM Na3VO4; with 50 uM ATP, ambient conditions, 30 min

Substance | Kd [1] [nM] | decrease in donor lifetime [2] [ps]
PLCγ1 nSH2 (from UniProt P19174) | 5 | –
mTurquoise.nSH2 fusion protein (mTFP.nSH2) (domain or fragment) | – | 500
